Measurements published in patent publication US20230331860A1 (Bristol-Myers Squibb, published 2023).

Columns and labels:
cynomolgus CD40 [1] = target: T1, cynomolgus CD40 (cynomolgus monkey, UniProt G7PG38 21-193); experiment: binding to CD20-positive B cells in cynomolgus monkey whole blood, detected with secondary anti-human IgG1-PE; n=4 donors
T1 construct: also called monomeric cynomolgus CD40; monkey CD40 receptors

cyCD32b = target: T2, cyCD32b (cynomolgus monkey, UniProt A0A140HDP4 43-217); experiment: FcγR binding, SPR (method per paragraph 74)
T2 construct: also called cynomolgus CD32b
T2 sequence: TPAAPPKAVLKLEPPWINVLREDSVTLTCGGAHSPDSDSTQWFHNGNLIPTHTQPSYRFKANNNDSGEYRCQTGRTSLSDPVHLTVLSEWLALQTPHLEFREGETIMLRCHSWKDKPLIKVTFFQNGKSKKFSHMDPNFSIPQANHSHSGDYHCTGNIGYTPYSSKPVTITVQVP

hCD16a-V158 = target: T3, hCD16a-V158 (human, UniProt P08637 17-208, limits assumed); experiment: FcγR binding, SPR (method per paragraph 74)
T3 construct: Position 158 is the customary allotype numbering; also called hCD16a/FcγRIIIa, V158 variant
T3 sequence (P08637 17-208 F176V limits assumed): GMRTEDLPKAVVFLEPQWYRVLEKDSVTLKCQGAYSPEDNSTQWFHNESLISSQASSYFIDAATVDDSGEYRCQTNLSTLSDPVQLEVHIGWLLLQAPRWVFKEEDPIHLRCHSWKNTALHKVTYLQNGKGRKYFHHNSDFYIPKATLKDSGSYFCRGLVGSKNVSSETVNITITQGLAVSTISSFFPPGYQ

cyCD32a = target: T4, cyCD32a (cynomolgus monkey, UniProt A0A140HDN0 30-216); experiment: FcγR binding, SPR (method per paragraph 74)
T4 construct: also called cynomolgus CD32a
T4 sequence: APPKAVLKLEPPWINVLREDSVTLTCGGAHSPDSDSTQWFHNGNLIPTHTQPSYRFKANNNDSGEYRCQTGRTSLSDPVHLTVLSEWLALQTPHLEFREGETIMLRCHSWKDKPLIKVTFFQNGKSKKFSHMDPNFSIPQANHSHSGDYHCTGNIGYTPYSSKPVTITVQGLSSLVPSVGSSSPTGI

hCD32b = target: T5, hCD32b (human, UniProt P31994 43-217, limits assumed); experiment: FcγR binding, SPR (method per paragraph 74)
T5 construct: also called hCD32b/FcγRIIb
T5 sequence (looked up): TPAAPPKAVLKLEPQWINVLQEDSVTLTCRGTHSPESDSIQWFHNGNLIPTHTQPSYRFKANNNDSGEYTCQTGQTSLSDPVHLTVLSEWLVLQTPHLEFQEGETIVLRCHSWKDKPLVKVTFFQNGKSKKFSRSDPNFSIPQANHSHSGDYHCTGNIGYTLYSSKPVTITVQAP

hCD32a-R131 = target: T6, hCD32a-R131 (human, UniProt P12318 36-218, limits assumed); experiment: FcγR binding, SPR (method per paragraph 74)
T6 construct: Position 131 is the customary allotype numbering; also called hCD32a/FcγRIIa, R131 variant
T6 sequence (looked up): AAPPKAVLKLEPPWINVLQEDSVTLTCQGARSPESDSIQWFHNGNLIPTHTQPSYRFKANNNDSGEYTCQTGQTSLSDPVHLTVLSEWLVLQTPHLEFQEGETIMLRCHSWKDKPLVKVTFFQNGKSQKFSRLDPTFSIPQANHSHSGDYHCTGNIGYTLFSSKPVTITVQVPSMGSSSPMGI

hCD16a-F158 = target: T7, hCD16a-F158 (human, UniProt P08637 17-208, limits assumed); experiment: FcγR binding, SPR (method per paragraph 74)
T7 construct: Position 158 is the customary allotype numbering; also called hCD16a/FcγRIIIa, F158 variant
T7 sequence (P08637 17-208 limits assumed): as the sequence (P08637 17-208 F176V limits assumed) above, with V160F counted along it

cyCD16 = target: T8, cyCD16 (cynomolgus monkey, UniProt Q8SPW2 17-208, limits assumed); experiment: FcγR binding, SPR (method per paragraph 74)
T8 construct: also called cynomolgus CD16
T8 sequence (Q8SPW2 17-208 limits assumed): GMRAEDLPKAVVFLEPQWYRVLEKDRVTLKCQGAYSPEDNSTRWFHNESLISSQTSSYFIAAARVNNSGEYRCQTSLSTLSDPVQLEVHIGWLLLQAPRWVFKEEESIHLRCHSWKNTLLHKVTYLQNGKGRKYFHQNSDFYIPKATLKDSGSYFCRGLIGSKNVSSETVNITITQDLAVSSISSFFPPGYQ

hCD32a-H131 = target: T9, hCD32a-H131 (human, UniProt P12318 36-218, limits assumed); experiment: FcγR binding, SPR (method per paragraph 74)
T9 construct: Position 131 is the customary allotype numbering; also called hCD32a/FcγRIIa, H131 variant
T9 sequence (looked up): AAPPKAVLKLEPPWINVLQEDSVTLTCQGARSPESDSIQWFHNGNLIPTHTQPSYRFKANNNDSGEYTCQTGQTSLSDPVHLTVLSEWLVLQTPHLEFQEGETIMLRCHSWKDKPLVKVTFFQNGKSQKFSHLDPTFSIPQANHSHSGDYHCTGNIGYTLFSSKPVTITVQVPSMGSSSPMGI

hCD64 [2] = target: T10, hCD64 (human, UniProt P12314 16-288, limits assumed); experiment: FcγR binding, SPR (method per paragraph 74)
T10 construct: also called human CD64
T10 sequence (P12314 16-288 limits assumed): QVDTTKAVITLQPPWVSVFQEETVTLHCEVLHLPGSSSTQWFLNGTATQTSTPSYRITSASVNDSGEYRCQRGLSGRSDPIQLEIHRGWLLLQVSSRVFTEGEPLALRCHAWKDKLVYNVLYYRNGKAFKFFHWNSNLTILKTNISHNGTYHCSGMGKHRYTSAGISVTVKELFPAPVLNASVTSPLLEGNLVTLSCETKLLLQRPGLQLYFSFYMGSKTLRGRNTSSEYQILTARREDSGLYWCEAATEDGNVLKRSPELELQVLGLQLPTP

human CD40 [3] = target: T11, human CD40 (human, UniProt P25942 21-193); experiment: SPR, antibody captured on protein A chip, monomeric CD40 as analyte
T11 construct: The SPR analyte is called 'monomeric human CD40'; also called monomeric human CD40
T11 sequence (P25942 21-193 limits assumed): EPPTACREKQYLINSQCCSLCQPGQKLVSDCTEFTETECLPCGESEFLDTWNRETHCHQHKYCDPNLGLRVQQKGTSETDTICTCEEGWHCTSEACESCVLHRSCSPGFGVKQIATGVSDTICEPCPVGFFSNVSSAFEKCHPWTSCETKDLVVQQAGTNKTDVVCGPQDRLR

cynomolgus CD40 [4] = target: T1, cynomolgus CD40; experiment: as above
human CD40 [5] = target: T11, human CD40; experiment: cell-based or functional assay; design: IC50, suppression of CHO CD40L-induced IL-6 production by monocyte-derived DCs; n=4 donors (mass units as printed) / IC50, suppression of CHO CD40L-induced TNFα production by monocyte-derived DCs; n=4 donors (mass units as printed): unit not given beside the values
cynomolgus CD40 [6] = target: T1, cynomolgus CD40; experiment: direct binding of AF488-labeled antibody to CD20-positive B cells in cynomolgus monkey whole blood; n=2 donors (same result in mass units)
human CD40 [7] = target: T11, human CD40; experiment: direct binding of AF488-labeled antibody to CD20-positive B cells in human whole blood; n=4 donors
human CD40 [8] = target: T11, human CD40; experiment: direct binding of AF488-labeled antibody to CD20-positive B cells in human whole blood; n=4 donors (same result in mass units)
cynomolgus CD40 [9] = target: T1, cynomolgus CD40; experiment: binding to CD20-positive B cells in cynomolgus monkey whole blood, detected with secondary anti-human IgG1-PE; n=4 donors (same result in mass units)
cynomolgus CD40 [10] = target: T1, cynomolgus CD40; experiment: direct binding of AF488-labeled antibody to CD20-positive B cells in cynomolgus monkey whole blood; n=2 donors
murine CD40 = target: T12, murine CD40 (murine, UniProt P27512 24-193, limits assumed); experiment: single-cycle kinetic SPR, CD40 on the surface
T12 construct: also called murine CD40 receptors
T12 sequence (looked up): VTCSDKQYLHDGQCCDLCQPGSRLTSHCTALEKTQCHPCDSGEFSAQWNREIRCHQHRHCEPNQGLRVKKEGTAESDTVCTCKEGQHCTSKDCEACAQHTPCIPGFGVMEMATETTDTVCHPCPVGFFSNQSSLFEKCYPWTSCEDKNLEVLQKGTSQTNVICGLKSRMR

hCD64 [11] = target: T10, hCD64; experiment: FcγR binding, SPR (method per paragraph 74); remark: listed apart in the source
human CD40 [12] = target: T11, human CD40; experiment: cell-based or functional assay
cynomolgus CD40 [13] = target: T1, cynomolgus CD40; experiment: cell-based or functional assay

B1: BMS-986325 (antibody, human IgG1, kappa)
heavy: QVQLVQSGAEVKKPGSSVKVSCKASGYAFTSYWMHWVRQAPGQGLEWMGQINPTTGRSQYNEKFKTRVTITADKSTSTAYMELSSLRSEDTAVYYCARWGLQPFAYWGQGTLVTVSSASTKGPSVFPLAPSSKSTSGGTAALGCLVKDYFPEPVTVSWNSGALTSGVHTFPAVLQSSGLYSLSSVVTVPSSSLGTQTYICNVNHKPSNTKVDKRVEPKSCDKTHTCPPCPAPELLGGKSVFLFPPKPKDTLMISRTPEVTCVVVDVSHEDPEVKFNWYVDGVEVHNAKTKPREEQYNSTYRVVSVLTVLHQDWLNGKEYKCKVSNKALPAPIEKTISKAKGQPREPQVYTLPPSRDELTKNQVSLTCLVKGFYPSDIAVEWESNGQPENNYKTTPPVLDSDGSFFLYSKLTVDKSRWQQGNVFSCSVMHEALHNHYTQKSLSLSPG
light: DIQMTQSPSFLSASVGDRVTITCKASQDVSTAVAWYQQKPGKAPKLLIYSASYRYTGVPSRFSGSGSGTDFTLTISSLQPEDFATYYCQQHYSTPWTFGGGTKVEIKRTVAAPSVFIFPPSDEQLKSGTASVVCLLNNFYPREAKVQWKVDNALQSGNSQESVTEQDSKDSTYSLSSTLTLSKADYEKHKVYACEVTHQGLSSPVTKSFNRGEC
notes: also called Y12XX-hz28-P238K; Y12XX-hz28 (Vh-hz14)
B1 was tested, and the EC50 (cynomolgus CD40 [1]) was 0.7 nM, the binding result (cyCD32b) was “no binding” and the binding result (hCD16a-V158) was “no binding”. B1: no binding (cyCD32a); no binding (hCD32b); no binding (hCD32a-R131). B1: no binding (hCD16a-F158); no binding (cyCD16); no binding (hCD32a-H131). The Kd (hCD64 [2]) was 17 nM, the Kd (human CD40 [3]) was 5.3 nM and the koff (human CD40 [3]) was 0.0012 s⁻¹. It also gave a kon (human CD40 [3]) of 230000 M⁻¹ s⁻¹, a Kd (cynomolgus CD40 [4]) of 6.7 nM and a koff (cynomolgus CD40 [4]) of 0.0016 s⁻¹. The kon (cynomolgus CD40 [4]) was 240000 M⁻¹ s⁻¹, the “IC50, suppression of CHO CD40L-induced IL-6 production by monocyte-derived DCs; n=4 donors” value (human CD40 [5]) was 0.08 nM and the “IC50, suppression of CHO CD40L-induced IL-6 production by monocyte-derived DCs; n=4 donors (mass units as printed)” value (human CD40 [5]) was 11.3. For the same binder, the “IC50, suppression of CHO CD40L-induced TNFα production by monocyte-derived DCs; n=4 donors” value (human CD40 [5]) was 0.1 nM, the “IC50, suppression of CHO CD40L-induced TNFα production by monocyte-derived DCs; n=4 donors (mass units as printed)” value (human CD40 [5]) was 13.3 and the EC50 (cynomolgus CD40 [6]) was 0.149 µg/mL. For the same binder, the EC50 (human CD40 [7]) was 0.9 nM, the EC50 (human CD40 [8]) was 0.13 µg/mL and the EC50 (cynomolgus CD40 [9]) was 0.106 µg/mL. The EC50 (cynomolgus CD40 [10]) was 1 nM, the binding result (murine CD40) was “no binding” and the “fold weaker binding than wild-type human IgG1 control” value (hCD64 [11]) was 100 fold. The “IC50, inhibition of CD54 upregulation on human B cells in whole blood stimulated by soluble CD40L trimer; n=10 donors” value (human CD40 [12]) was 0.24 nM, the “IC50, inhibition of CD54 upregulation on human B cells in whole blood stimulated by soluble CD40L trimer; n=10 donors (mass units)” value (human CD40 [12]) was 0.0346 µg/mL and the “IC50, inhibition of CD86 upregulation on human B cells in whole blood stimulated by soluble CD40L trimer; n=10 donors” value (human CD40 [12]) was 0.24 nM. The “IC50, inhibition of CD86 upregulation on human B cells in whole blood stimulated by soluble CD40L trimer; n=10 donors (mass units)” value (human CD40 [12]) was 0.0342 µg/mL, the “IC50, inhibition of human tonsillar B-cell proliferation stimulated by soluble CD40L trimer; n=10 donors” value (human CD40 [12]) was 0.04 nM and the “IC50, inhibition of human tonsillar B-cell proliferation stimulated by soluble CD40L trimer; n=10 donors (mass units)” value (human CD40 [12]) was 0.0056 µg/mL. The “IC50, inhibition of tonsillar B-cell proliferation stimulated by CD40L-expressing CHO cells; n=8 donors” value (human CD40 [12]) was 0.28 nM, the “IC50, inhibition of tonsillar B-cell proliferation stimulated by CD40L-expressing CHO cells; n=8 donors (mass units)” value (human CD40 [12]) was 0.0399 µg/mL and the “IC50, inhibition of CD86 upregulation on cynomolgus B cells in whole blood stimulated by soluble CD40L trimer; n=8 donors” value (cynomolgus CD40 [13]) was 0.25 nM. For the same binder, the “IC50, inhibition of CD86 upregulation on cynomolgus B cells in whole blood stimulated by soluble CD40L trimer; n=8 donors (mass units)” value (cynomolgus CD40 [13]) was 0.0364 µg/mL, the “IC50, inhibition of cynomolgus splenic B-cell proliferation driven by CD40L-expressing CHO cells; n=6 donors” value (cynomolgus CD40 [13]) was 4.5 nM and the “IC50, inhibition of cynomolgus splenic B-cell proliferation driven by CD40L-expressing CHO cells; n=6 donors (mass units)” value (cynomolgus CD40 [13]) was 0.65 µg/mL. For the same binder, the “IC50, inhibition of cynomolgus splenic B-cell proliferation driven by CD40L-trimer; n=6 donors” value (cynomolgus CD40 [13]) was 0.19 nM and the “IC50, inhibition of cynomolgus splenic B-cell proliferation driven by CD40L-trimer; n=6 donors (mass units)” value (cynomolgus CD40 [13]) was 0.0278 µg/mL.
